Experiment [1] concerns the target T1, recombinant cynomolgus monkey (Macaca fascicularis) TfR1 (cynomolgus monkey (Macaca fascicularis), UniProt Q5RDH6 87-760 (Pongo abelii entry), limits assumed).
T1 construct: Recombinant protein; also called cTfR1; cyTfR1
T1 chain: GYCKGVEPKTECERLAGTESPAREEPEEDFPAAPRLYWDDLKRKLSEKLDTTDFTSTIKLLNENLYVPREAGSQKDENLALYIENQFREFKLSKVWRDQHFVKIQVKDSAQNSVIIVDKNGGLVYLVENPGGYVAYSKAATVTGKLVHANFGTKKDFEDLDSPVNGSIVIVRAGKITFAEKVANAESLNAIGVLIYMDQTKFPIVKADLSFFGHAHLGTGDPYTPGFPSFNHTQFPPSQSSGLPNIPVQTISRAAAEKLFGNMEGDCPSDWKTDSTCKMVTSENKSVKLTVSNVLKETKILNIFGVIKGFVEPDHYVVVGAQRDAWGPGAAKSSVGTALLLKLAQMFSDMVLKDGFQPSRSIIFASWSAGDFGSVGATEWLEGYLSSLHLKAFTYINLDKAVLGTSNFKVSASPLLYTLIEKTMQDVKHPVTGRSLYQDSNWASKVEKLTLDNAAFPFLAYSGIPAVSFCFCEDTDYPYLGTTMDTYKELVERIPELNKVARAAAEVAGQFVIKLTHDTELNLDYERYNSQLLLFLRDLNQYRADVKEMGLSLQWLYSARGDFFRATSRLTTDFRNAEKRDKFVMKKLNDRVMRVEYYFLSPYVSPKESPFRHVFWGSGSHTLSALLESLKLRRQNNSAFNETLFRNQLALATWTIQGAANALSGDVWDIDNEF
The experiment can be described thus: ELISA on cTfR1, Fab conjugated to DMPK-targeting oligonucleotide, % normalized RFUs.

Experiment [2] concerns the target T2, recombinant human TfR1 (transferrin receptor protein 1) (human, UniProt P02786 89-760).
T2 construct: Recombinant protein in SPR and ELISA; they were assigned to this molecule; also called hTfR1; huTfR1
The experiment can be described thus: ELISA on hTfR1, Fab conjugated to DMPK-targeting oligonucleotide, % normalized RFUs.

Experiment [3] addresses T2, recombinant human TfR1 (transferrin …). As to the kind of experiment: ELISA, recombinant TfR1 coated, Fab-ASO300 conjugate (row 'Conjugate binding affinity ELISA').
Experiment [4] deals with T1, recombinant cynomolgus monkey (Macaca …). Described as above.
The target of experiment [5] is T2, recombinant human TfR1 (transferrin …). The experiment can be described thus: Table 14, Fab-ASO300 conjugate; method not named.
For experiment [6], the target named is T1, recombinant cynomolgus monkey (Macaca …). The experiment can be described thus: Table 14, Fab-ASO300 conjugate; method not named.
Experiment [7] has as its target T2, recombinant human TfR1 (transferrin …). As to the kind of experiment: kinetic analysis (Biacore), Table 7; TfR1 species not stated.
The target is the same in experiment [8]. As to the kind of experiment: Table 14, unconjugated Fab, d9 (after 9 days at 40 C); method not named.
Experiment [9] concerns the target T1, recombinant cynomolgus monkey (Macaca …). Described as above.
Experiment [10] addresses T2, recombinant human TfR1 (transferrin …). As to the kind of experiment: ELISA on hTfR1, unconjugated Fab, % normalized RFUs. (An ELISA detects its analyte on a solid surface through an enzyme-linked reagent.)
For experiment [11] the target is unchanged. As to the kind of experiment: Biacore, d0; TfR1 species not stated. On the technique in general: Surface plasmon resonance follows binding to a sensor surface in real time, without labels.
Experiment [12] has the same target. As to the kind of experiment: ELISA on plate-coated recombinant hTfR1, fluorescent anti-(H+L) IgG-A488 detection, % normalized RFUs. As for the experimental part: To measure binding of humanized anti-TfR antibodies to TfR1, ELISAs were conducted. High binding, black, flat bottom, 96 well plates (Corning #3925) were first coated with 100 μL/well of recombinant huTfR1 at 1 μg/mL in PBS and incubated at 4° C. overnight. Wells were emptied and residual liquid was removed. Blocking was conducted by adding 200 μL of 1% BSA (w/w) in PBS to each well. Blocking was allowed to proceed for 2 hours at room temperature on a shaker at 30) rpm. After blocking, liquid was removed and wells were washed three times with 300 μL of TBST. Anti-TfR1 antibodies were then added in 0.5% BSA/TBST in triplicate in an 8 point serial dilution (dilution range 5 μg/mL-5 ng/mL). A positive control and isotype controls were also included on the ELISA plate. The plate was incubated at room temperature on an orbital shaker for 60 minutes at 300 rpm, and the plate was washed three times with 300 μL of TBST. Anti-(H+L)IgG-A488 (1:500) (Invitrogen #A11013) was diluted in 0.5% BSA in TBST, and 100 μL was added to each well. The plate was then allowed to incubate at room temperature for 60 minutes at 300 rpm on orbital shaker. The liquid was removed and the plate was washed four times with 300 μL of TBST. Absorbance was then measured at 495 nm excitation and […] (with a 15 nm bandwidth) on a plate reader. Data was recorded and analyzed for $EC50$. […] ELISA measurements were conducted using cynomolgus monkey (Macaca fascicularis) TfR1 (cTfR1) according to the same protocol described above for hTfR1, and results are shown in FIGS. 9B, 9D, and 9F.

The target of experiment [13] is T1, recombinant cynomolgus monkey (Macaca …). The experiment can be described thus: ELISA on cTfR1, unconjugated Fab, % normalized RFUs.
The target in experiment [14] is T2, recombinant human TfR1 (transferrin …). As to the kind of experiment: Table 14, unconjugated Fab, d0; method not named (values equal ELISA row of Table 13).
For experiment [15], the target named is T1, recombinant cynomolgus monkey (Macaca …). Described as above.
For experiment [16], the target named is T2, recombinant human TfR1 (transferrin …). As to the kind of experiment: Biacore, d25; TfR1 species not stated.
Experiment [17] has the same target. The experiment can be described thus: ELISA, recombinant TfR1 coated, unconjugated Fab (row 'Fab binding affinity ELISA').
Experiment [18] concerns the target T1, recombinant cynomolgus monkey (Macaca …). The description is as above.
For experiment [19] the target is unchanged. As to the kind of experiment: ELISA on plate-coated recombinant cTfR1, fluorescent anti-(H+L) IgG-A488 detection, % normalized RFUs. The procedure:
To measure binding of humanized anti-TfR antibodies to TfR1, ELISAs were conducted. High binding, black, flat bottom, 96 well plates (Corning #3925) were first coated with 100 μL/well of recombinant huTfR1 at 1 μg/mL in PBS and incubated at 4° C. overnight. Wells were emptied and residual liquid was removed. Blocking was conducted by adding 200 μL of 1% BSA (w/w) in PBS to each well. Blocking was allowed to proceed for 2 hours at room temperature on a shaker at 30) rpm. After blocking, liquid was removed and wells were washed three times with 300 μL of TBST. Anti-TfR1 antibodies were then added in 0.5% BSA/TBST in triplicate in an 8 point serial dilution (dilution range 5 μg/mL-5 ng/mL). A positive control and isotype controls were also included on the ELISA plate. The plate was incubated at room temperature on an orbital shaker for 60 minutes at 300 rpm, and the plate was washed three times with 300 μL of TBST. Anti-(H+L)IgG-A488 (1:500) (Invitrogen #A11013) was diluted in 0.5% BSA in TBST, and 100 μL was added to each well. The plate was then allowed to incubate at room temperature for 60 minutes at 300 rpm on orbital shaker. The liquid was removed and the plate was washed four times with 300 μL of TBST. Absorbance was then measured at 495 nm excitation and […] (with a 15 nm bandwidth) on a plate reader. Data was recorded and analyzed for $EC50$. […]

Residue numbers refer to the chain shown, from its start. Numbers in names are those of the source.

B1: conjugate of humanized anti-TfR Fab 5H12 VH5 (C33Y)/Vκ4 with DMPK-targeting oligonucleotide ASO300 (Fab, V domains shown)
VH: QVQLVQSGAEVKKPGASVKVSCKASGYSFTDYYINWVRQAPGQGLEWMGWIYPGSGNTRYSERFKGRVTITRDTSASTAYMELSSLRSEDTAVYYCAREDYYPYHGMDYWGQGTLVTVSS
VL: DIVMTQSPDSLAVSLGERATINCRASESVDGYDNSFMHWYQQKPGQPPKLLIFRASNLESGVPDRFSGSGSGTDFTLTISSLQAEDVAVYYCQQSSEDPWTFGQGTKLEIKR
modifications: oligonucleotide ASO300 conjugated to the Fab via linker; residue and chain not stated
By EC50 is commonly meant the concentration that produces a half-maximal response. On to B1, for which the EC50 stood at 2.8 nM in experiment [1], 25.5 nM in [2], 23.7 nM in experiment [3] and 3.3 nM in experiment [4]. For the same molecule, the “DMPK oligo conjugate binding” value in [5] and in experiment [6] was 13.9 nM in each case.

B2: humanized anti-TfR Fab 3A4 VH3 (N54T)/Vκ4 (Fab, V domains shown)
VH: EVQLVQSGSELKKPGASVKVSCTASGFNIKDDYMYWVRQPPGKGLEWIGWIDPETGDTEYASKFQDRVTVTADTSTNTAYMELSSLRSEDTAVYYCTLWLRRGLDYWGQGTLVTVSS
VL: DIVMTQSPLSLPVTPGEPASISCRSSKSLLHSNGYTYLFWFQQRPGQSPRLLIYRMSNLASGVPDRFSGSGSGTDFTLKISRVEAEDVGVYYCMQHLEYPFTFGGGTKVEIKR
notes: also called 3A4 (VH3-N54T/Vk4)
What is called Kd is the free concentration of one partner at which half of the binding sites on the other are occupied at equilibrium, for simple one-to-one binding. One may read the koff as the rate constant with which the complex falls apart. The kon is a measure of how fast the partners come together. With B2, the Kd in experiment [7] came out at 3.09 nM; in [11], 3.09 nM; in experiment [16], 3.01 nM. Further, the koff in [7] is 0.000705 s⁻¹. In addition, in experiment [7], the kon is 228000 M⁻¹ s⁻¹. Further, the Binding affinity in experiment [8] was found to be 0.4 nM; in [9] it was 128 nM; in experiment [14] it was 2.6 nM; in [15], 156 nM. For the same molecule, the EC50 was 2.3 nM in experiment [10]; 2.3 nM in experiment [12]; over 100 nM in [13]; 2.6 nM in experiment [17]; 156 nM in experiment [18]; over 100 nM in [19].

B3: humanized anti-TfR Fab 3A4 VH3 (N54S)/Vκ4 (Fab, V domains shown)
VH: B2 VH with T55S
VL: B2 VL
notes: also called 3A4 (VH3-N54S/Vk4)
For the molecule B3, the results for the Kd in experiment [7], in [11] and in experiment [16] were 1.34 nM, 1.34 nM and 1.39 nM, respectively. Besides, the Binding affinity in experiment [8] worked out at 0.65 nM; in experiment [9], 248 nM; in experiment [14] it was 1.6 nM; in [15], 398 nM. Further, the EC50 in experiment [10] was 1.9 nM; in experiment [12] it was 1.9 nM; in experiment [13], over 100 nM; in experiment [17], 1.6 nM; in [18], 398 nM; in [19], over 100 nM.

The record behind these values is US11844843 (DYNE THERAPEUTICS, dated 2023).
